Assay results reported in PMC7545097, “Mapping the native interaction surfaces of PREP1 with PBX1 by cross-linking mass-spectrometry and mutagenesis” (Scientific Reports, 2020).

T1: PBX1Δ43-55 (human, UniProt P40424 1-430, Δ43-55)
T1 construct: PBX1, residues 1-430, with an internal deletion; source: E. coli, purified
T1 sequence (looked up): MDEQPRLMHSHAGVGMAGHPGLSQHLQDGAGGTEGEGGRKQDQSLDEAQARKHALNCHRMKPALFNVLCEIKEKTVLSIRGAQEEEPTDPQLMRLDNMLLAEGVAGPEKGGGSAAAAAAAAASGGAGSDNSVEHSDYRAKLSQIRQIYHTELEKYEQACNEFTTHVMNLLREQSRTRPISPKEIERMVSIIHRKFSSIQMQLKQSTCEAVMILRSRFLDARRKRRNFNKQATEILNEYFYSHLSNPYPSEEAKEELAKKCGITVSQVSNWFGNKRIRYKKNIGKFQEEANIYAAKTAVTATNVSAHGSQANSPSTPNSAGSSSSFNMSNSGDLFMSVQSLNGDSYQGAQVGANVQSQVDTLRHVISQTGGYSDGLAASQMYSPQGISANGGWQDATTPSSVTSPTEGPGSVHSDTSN

T2: N-terminal GST-fused wild-type PREP1 (UniProt P55347 1-436)
T2 construct: PREP1 (PKNOX1), residues 1-436; Detected through GST in the ELISA; also called GST-fused PREP1; source: E. coli, purified; not shown: GST, N-terminal, kept
T2 sequence (looked up): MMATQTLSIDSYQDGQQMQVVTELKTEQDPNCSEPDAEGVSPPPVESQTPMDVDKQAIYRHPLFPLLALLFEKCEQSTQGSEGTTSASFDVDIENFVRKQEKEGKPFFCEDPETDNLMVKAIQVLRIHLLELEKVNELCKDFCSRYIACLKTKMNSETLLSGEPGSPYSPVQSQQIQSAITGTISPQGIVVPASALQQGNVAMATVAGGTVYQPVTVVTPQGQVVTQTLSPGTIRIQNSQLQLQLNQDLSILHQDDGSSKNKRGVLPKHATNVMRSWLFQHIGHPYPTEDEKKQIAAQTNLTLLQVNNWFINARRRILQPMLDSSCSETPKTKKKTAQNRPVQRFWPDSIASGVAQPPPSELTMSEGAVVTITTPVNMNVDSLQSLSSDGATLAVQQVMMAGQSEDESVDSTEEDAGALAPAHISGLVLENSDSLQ


Key:
[1] = target: double or triple mutants (L77A/V80A, L77A/I84A, V80A/L81A, L77A/V80A/L81A) of PBX1; experiment: time-resolved fluorescence immunoassay (TR-FIA); plate coated with monoclonal anti-PBX1; PBX1 pre-incubated with PREP1 or MEIS1 for 1 h on ice, 10 µg/mL in 1% BSA PBS, 1 h at room temperature on the plate; detected with anti-PREP1 or biotinylated anti-MEIS1/2 and Eu^3+ conjugates; normalised to the wild-type protein taken as 1
[2] = target: single mutations of most hydrophobic residues (V80, L81 and I84) of PBX1; experiment: as above
PBX1Δ197-204 (human) = PBX1Δ197-204 (human) (UniProt P40424); experiment: as above
PBX1Δ43-55 = target: T1, PBX1Δ43-55; experiment: as above; conditions: both partners purified
[3] = target: T2, N-terminal GST-fused wild-type PREP1; experiment: ELISA; PBX1 wild-type coated at 0.1 µM in 100 mM Tris–HCl pH 7.5; GST-fused proteins at 0.23 nM to 0.5 µM, 1 h at 37 °C; anti-GST detection; GST signal subtracted; one-site binding model; conditions: both partners purified

| binding relative to wild type [1] [%] | binding relative to wild type [2] [%] | binding relative to wild type (PBX1Δ197-204 (human)) [%] | binding relative to wild type (PBX1Δ43-55) [%] | Kd [3] [nM] | Binder |
| --- | --- | --- | --- | --- | --- |
| 30 to 40 | 40 to 60 | 65 | 80 | – | PREP1_(1-436), wild-type recombinant (TR-FIA) (natural protein, UniProt P55347 1-436, looked up, also called wild-type PREP1; PKNOX1; source: E. coli, purified) MMATQTLSIDSYQDGQQMQVVTELKTEQDPNCSEPDAEGVSPPPVESQTPMDVDKQAIYRHPLFPLLALLFEKCEQSTQGSEGTTSASFDVDIENFVRKQEKEGKPFFCEDPETDNLMVKAIQVLRIHLLELEKVNELCKDFCSRYIACLKTKMNSETLLSGEPGSPYSPVQSQQIQSAITGTISPQGIVVPASALQQGNVAMATVAGGTVYQPVTVVTPQGQVVTQTLSPGTIRIQNSQLQLQLNQDLSILHQDDGSSKNKRGVLPKHATNVMRSWLFQHIGHPYPTEDEKKQIAAQTNLTLLQVNNWFINARRRILQPMLDSSCSETPKTKKKTAQNRPVQRFWPDSIASGVAQPPPSELTMSEGAVVTITTPVNMNVDSLQSLSSDGATLAVQQVMMAGQSEDESVDSTEEDAGALAPAHISGLVLENSDSLQ |
| – | – | – | – | 18 ± 4 | PBX1_(1-430), wild-type recombinant (natural protein, human, UniProt P40424 1-430, looked up, also called wild-type PBX1; purified recombinant human PBX1; source: E. coli, purified) MDEQPRLMHSHAGVGMAGHPGLSQHLQDGAGGTEGEGGRKQDIGDILQQIMTITDQSLDEAQARKHALNCHRMKPALFNVLCEIKEKTVLSIRGAQEEEPTDPQLMRLDNMLLAEGVAGPEKGGGSAAAAAAAAASGGAGSDNSVEHSDYRAKLSQIRQIYHTELEKYEQACNEFTTHVMNLLREQSRTRPISPKEIERMVSIIHRKFSSIQMQLKQSTCEAVMILRSRFLDARRKRRNFNKQATEILNEYFYSHLSNPYPSEEAKEELAKKCGITVSQVSNWFGNKRIRYKKNIGKFQEEANIYAAKTAVTATNVSAHGSQANSPSTPNSAGSSSSFNMSNSGDLFMSVQSLNGDSYQGAQVGANVQSQVDTLRHVISQTGGYSDGLAASQMYSPQGISANGGWQDATTPSSVTSPTEGPGSVHSDTSN |
